Patent publication EP2559758A1, “Modified glyceraldehyde-3-phosphate dehydrogenase from corynebacterium glutamicum and uses thereof” (Technische Universität Hamburg-Harburg, priority 2011, dated 2013)

How the values were obtained:
[1] = substrate: NC(=O)c1ccc[n+]([C@@H]2O[C@H](COP(=O)(O)OP(=O)(O)OC[C@H]3O[C@@H](n4cnc5c(N)ncnc54)[C@H](O)[C@@H]3O)[C@@H](O)[C@H]2O)c1; experiment: GAPDH enzyme activity, coenzyme kinetics (NAD(P)H absorbance at 340 nm); assay type: biochemical, C. glutamicum; conditions: coenzyme varied, 25°C, pH 8.5, 1.5 mM glyceraldehyde-3-phosphate, 50 mM Na2HPO4, mean ± S.D.
Description: (§1) The above recombinant E. coli strains were cultured at 37°C in LB medium containing 100 mg/L kanamycine until an OD600 of 0.6 was reached. Then, (isopropyl-beta-D-thiogalactopyranoside (IPTG) was added to the medium to a final concentration of 0.1 mM, and the bacteria were cultured at 20°C for another 12-14 h. The E. coli cells were then harvested and washed and suspended in the buffer of 50 mM Na2HPO4 (pH 7.5), 0.2 mM EDTA and 0.1 mM dithiothreitol. Suspended cells were disrupted by sonication and centrifuged at 13.000 rpm for 1 h. The supernatant was purified by use of a Ni^2+ NTA column (GE Healthcare Bio-Sciences, Piscataway, NJ).
(§2) The enzyme activity of glyceraldehyde-3-phosphate dehydrogenase was determined by monitoring the change of NAD(P)H in absorbance at 340 nm at 25°C using a Multiskan® spectrophotometer (Thermo Scientific, Germany). Initial rate measurements were carried out in 50 mM triethanolamine hydrochloride buffer (pH 8.5), 0.2 mM EDTA, 50 mM Na2HPO4, 1.5 mM glyceraldehyde-3-phosphate (Clermont et al., 1993). When saturation could be reached, kinetic parameters were obtained from activity measurements with coenzyme concentrations ranging from 0.1 Km to 10 Km. Each rate measurement was run in triplicate. One unit of enzyme activity corresponds to one µmol of NAD(P)H formed per minute. Kinetic constants were obtained from non-linear regression data analysis and expressed as mean ± S.D.
(§3) The kinetic parameters determined for wild-type and mutated forms of glyceraldehyde-3-phosphate dehydrogenase are shown in Table 1. It can be seen that coenzyme specificity of glyceraldehyde-3-phosphate has been changed from NAD to NADP by the introduction of mutations at amino positions 35, 36, 37 and 192. More specifically, mutants comprising amino acid exchanges D35G/L36T/T37K, D35G/L36T/P192S, D35G/L36R/P192S, or D35G/L36T/T37K/P192S show a high catalytic efficiency and can utilize both NAD^+ and NADP^+. Table 1: Kinetic parameters of wild-type and mutated glyceraldehyde-3-phosphate dehydrogenase

[2] = substrate: NC(=O)c1ccc[n+]([C@@H]2O[C@H](COP(=O)(O)OP(=O)(O)OC[C@H]3O[C@@H](n4cnc5c(N)ncnc54)[C@H](OP(=O)(O)O)[C@@H]3O)[C@@H](O)[C@H]2O)c1; experiment: as above; assay type: biochemical, C. glutamicum; conditions: coenzyme varied, 25°C, pH 8.5, 1.5 mM glyceraldehyde-3-phosphate, 50 mM Na2HPO4, mean ± S.D.
Description: as §1, §2, §3

B1: C. glutamicum glyceraldehyde-3-phosphate dehydrogenase (gapA) variant D35G/L36T/T37K (Corynebacterium glutamicum ATCC 13032; D35G/L36T/T37K) (protein)
chain: MTIRVGINGFGRIGRNFFRAVLERSDDLEVVAVNGTKDNKTLSTLLKFDSIMGRLGQEVEYDDDSITVGGKRIAVYAERDPKNLDWAAHNVDIVIESTGFFTDANAAKAHIEAGAKKVIISAPASNEDATFVYGVNHESYDPENHNVISGASCTTNCLAPMAKVLNDKFGIENGLMTTVHAYTGDQRLHDAPHRDLRRARAAAVNIVPTSTGAAKAVALVLPELKGKLDGYALRVPVITGSATDLTFNTKSEVTVESINAAIKEAAVGEFGETLAYSEEPLVSTDIVHDSHGSIFDAGLTKVSGNTVKVVSWYDNEWGYTCQLLRLTELVASKL
notes: His-tag (inferred: pET-28a+ NdeI cloning, Ni-NTA purification) (N); His-tag (inferred: reverse primer has no stop codon and reads in frame into the vector's C-terminal His-tag) (C); made in house; host or cells: E. coli BL21 (DE3) CodonPlus RIPL
B1 was tested, and the Km ([1]; other: D35G/L36T/T37K) was 470 ± 32 µM, the kcat ([1]; other: D35G/L36T/T37K) was 4.2 ± 0.55 s⁻¹ and the kcat/Km ([1]; other: D35G/L36T/T37K) was 536 ± 48 mM/min. The Km ([2]; other: D35G/L36T/T37K) was 100 ± 12 µM, the kcat ([2]; other: D35G/L36T/T37K) was 8 ± 0.6 s⁻¹ and the kcat/Km ([2]; other: D35G/L36T/T37K) was 4800 ± 232 mM/min.

B2: C. glutamicum glyceraldehyde-3-phosphate dehydrogenase (gapA) variant D35G/L36T/P192S (Corynebacterium glutamicum ATCC 13032; D35G/L36T/P192S) (protein)
chain: MTIRVGINGFGRIGRNFFRAVLERSDDLEVVAVNGTTDNKTLSTLLKFDSIMGRLGQEVEYDDDSITVGGKRIAVYAERDPKNLDWAAHNVDIVIESTGFFTDANAAKAHIEAGAKKVIISAPASNEDATFVYGVNHESYDPENHNVISGASCTTNCLAPMAKVLNDKFGIENGLMTTVHAYTGDQRLHDASHRDLRRARAAAVNIVPTSTGAAKAVALVLPELKGKLDGYALRVPVITGSATDLTFNTKSEVTVESINAAIKEAAVGEFGETLAYSEEPLVSTDIVHDSHGSIFDAGLTKVSGNTVKVVSWYDNEWGYTCQLLRLTELVASKL
notes: as for B1
With B2 the Km ([1]; other: D35G/L36T/P192S) was 120 ± 4 µM, the kcat ([1]; other: D35G/L36T/P192S) was 3.78 ± 0.283 s⁻¹ and the kcat/Km ([1]; other: D35G/L36T/P192S) was 1952 ± 113 mM/min. For the same protein, the Km ([2]; other: D35G/L36T/P192S) was 70 ± 3 µM and the kcat ([2]; other: D35G/L36T/P192S) was 6.58 ± 0.467 s⁻¹.

B3: C. glutamicum glyceraldehyde-3-phosphate dehydrogenase (gapA) variant D35G/L36R/P192S (Corynebacterium glutamicum ATCC 13032; D35G/L36R/P192S) (protein)
chain: MTIRVGINGFGRIGRNFFRAVLERSDDLEVVAVNGRTDNKTLSTLLKFDSIMGRLGQEVEYDDDSITVGGKRIAVYAERDPKNLDWAAHNVDIVIESTGFFTDANAAKAHIEAGAKKVIISAPASNEDATFVYGVNHESYDPENHNVISGASCTTNCLAPMAKVLNDKFGIENGLMTTVHAYTGDQRLHDASHRDLRRARAAAVNIVPTSTGAAKAVALVLPELKGKLDGYALRVPVITGSATDLTFNTKSEVTVESINAAIKEAAVGEFGETLAYSEEPLVSTDIVHDSHGSIFDAGLTKVSGNTVKVVSWYDNEWGYTCQLLRLTELVASKL
notes: as for B1
B3 showed a Km ([1]; other: D35G/L36R/P192S) of 58 ± 2 µM, a kcat ([1]; other: D35G/L36R/P192S) of 2.87 ± 0.183 s⁻¹ and a kcat/Km ([1]; other: D35G/L36R/P192S) of 2954 ± 228 mM/min. It also gave a Km ([2]; other: D35G/L36R/P192S) of 100 ± 12 µM, a kcat ([2]; other: D35G/L36R/P192S) of 6.48 ± 0.617 s⁻¹ and a kcat/Km ([2]; other: D35G/L36R/P192S) of 3885 ± 247 mM/min.

B4: C. glutamicum glyceraldehyde-3-phosphate dehydrogenase (gapA) variant D35G/L36T/T37K/P192S (Corynebacterium glutamicum ATCC 13032; D35G/L36T/P192S/T37K) (protein)
chain: MTIRVGINGFGRIGRNFFRAVLERSDDLEVVAVNGTKDNKTLSTLLKFDSIMGRLGQEVEYDDDSITVGGKRIAVYAERDPKNLDWAAHNVDIVIESTGFFTDANAAKAHIEAGAKKVIISAPASNEDATFVYGVNHESYDPENHNVISGASCTTNCLAPMAKVLNDKFGIENGLMTTVHAYTGDQRLHDASHRDLRRARAAAVNIVPTSTGAAKAVALVLPELKGKLDGYALRVPVITGSATDLTFNTKSEVTVESINAAIKEAAVGEFGETLAYSEEPLVSTDIVHDSHGSIFDAGLTKVSGNTVKVVSWYDNEWGYTCQLLRLTELVASKL
notes: as for B1
In the case of B4, the Km ([1]; other: D35G/L36T/T37K/P192S) is reported as 100 ± 14 µM, the kcat ([1]; other: D35G/L36T/T37K/P192S) is reported as 2.73 ± 0.2 s⁻¹ and the kcat/Km ([1]; other: D35G/L36T/T37K/P192S) is reported as 1640 ± 108 mM/min. The Km ([2]; other: D35G/L36T/T37K/P192S) was 70 ± 3 µM, the kcat ([2]; other: D35G/L36T/T37K/P192S) was 7.13 ± 0.75 s⁻¹ and the kcat/Km ([2]; other: D35G/L36T/T37K/P192S) was 5868 ± 352 mM/min.

B5: C. glutamicum glyceraldehyde-3-phosphate dehydrogenase (gapA), Wild-type, SEQ ID NO:1 (Corynebacterium glutamicum ATCC 13032) (protein)
chain: MTIRVGINGFGRIGRNFFRAVLERSDDLEVVAVNDLTDNKTLSTLLKFDSIMGRLGQEVEYDDDSITVGGKRIAVYAERDPKNLDWAAHNVDIVIESTGFFTDANAAKAHIEAGAKKVIISAPASNEDATFVYGVNHESYDPENHNVISGASCTTNCLAPMAKVLNDKFGIENGLMTTVHAYTGDQRLHDAPHRDLRRARAAAVNIVPTSTGAAKAVALVLPELKGKLDGYALRVPVITGSATDLTFNTKSEVTVESINAAIKEAAVGEFGETLAYSEEPLVSTDIVHDSHGSIFDAGLTKVSGNTVKVVSWYDNEWGYTCQLLRLTELVASKL
notes: as for B1
Work on B5 yielded a Km ([1]; other: Wild-type) of 48 ± 2 µM, a kcat ([1]; other: Wild-type) of 6.45 ± 0.467 s⁻¹ and a kcat/Km ([1]; other: Wild-type) of 8063 ± 540 mM/min.

B6: C. glutamicum glyceraldehyde-3-phosphate dehydrogenase (gapA) variant D35G (Corynebacterium glutamicum ATCC 13032; D35G) (protein)
chain: MTIRVGINGFGRIGRNFFRAVLERSDDLEVVAVNGLTDNKTLSTLLKFDSIMGRLGQEVEYDDDSITVGGKRIAVYAERDPKNLDWAAHNVDIVIESTGFFTDANAAKAHIEAGAKKVIISAPASNEDATFVYGVNHESYDPENHNVISGASCTTNCLAPMAKVLNDKFGIENGLMTTVHAYTGDQRLHDAPHRDLRRARAAAVNIVPTSTGAAKAVALVLPELKGKLDGYALRVPVITGSATDLTFNTKSEVTVESINAAIKEAAVGEFGETLAYSEEPLVSTDIVHDSHGSIFDAGLTKVSGNTVKVVSWYDNEWGYTCQLLRLTELVASKL
notes: as for B1
In the case of B6, the Km ([1]; other: D35G) is reported as 540 ± 70 µM, the kcat ([1]; other: D35G) is reported as 6.37 ± 0.533 s⁻¹ and the kcat/Km ([1]; other: D35G) is reported as 707 ± 82 mM/min. For the same protein, the Km ([2]; other: D35G) was 830 ± 120 µM, the kcat ([2]; other: D35G) was 2.97 ± 0.183 s⁻¹ and the kcat/Km ([2]; other: D35G) was 215 ± 22 mM/min.

B7: C. glutamicum glyceraldehyde-3-phosphate dehydrogenase (gapA) variant D35G/L36T (Corynebacterium glutamicum ATCC 13032; D35G/L36T) (protein)
chain: MTIRVGINGFGRIGRNFFRAVLERSDDLEVVAVNGTTDNKTLSTLLKFDSIMGRLGQEVEYDDDSITVGGKRIAVYAERDPKNLDWAAHNVDIVIESTGFFTDANAAKAHIEAGAKKVIISAPASNEDATFVYGVNHESYDPENHNVISGASCTTNCLAPMAKVLNDKFGIENGLMTTVHAYTGDQRLHDAPHRDLRRARAAAVNIVPTSTGAAKAVALVLPELKGKLDGYALRVPVITGSATDLTFNTKSEVTVESINAAIKEAAVGEFGETLAYSEEPLVSTDIVHDSHGSIFDAGLTKVSGNTVKVVSWYDNEWGYTCQLLRLTELVASKL
notes: as for B1
Protein B7 has a Km ([1]; other: D35G/L36T) of 220 ± 38 µM, a kcat ([1]; other: D35G/L36T) of 4.77 ± 0.617 s⁻¹ and a kcat/Km ([1]; other: D35G/L36T) of 1300 ± 154 mM/min. The Km ([2]; other: D35G/L36T) was 280 ± 16 µM, the kcat ([2]; other: D35G/L36T) was 5.87 ± 0.867 s⁻¹ and the kcat/Km ([2]; other: D35G/L36T) was 1257 ± 118 mM/min.

B8: C. glutamicum glyceraldehyde-3-phosphate dehydrogenase (gapA) variant D35G/L36R (Corynebacterium glutamicum ATCC 13032; D35G/L36R) (protein)
chain: MTIRVGINGFGRIGRNFFRAVLERSDDLEVVAVNGRTDNKTLSTLLKFDSIMGRLGQEVEYDDDSITVGGKRIAVYAERDPKNLDWAAHNVDIVIESTGFFTDANAAKAHIEAGAKKVIISAPASNEDATFVYGVNHESYDPENHNVISGASCTTNCLAPMAKVLNDKFGIENGLMTTVHAYTGDQRLHDAPHRDLRRARAAAVNIVPTSTGAAKAVALVLPELKGKLDGYALRVPVITGSATDLTFNTKSEVTVESINAAIKEAAVGEFGETLAYSEEPLVSTDIVHDSHGSIFDAGLTKVSGNTVKVVSWYDNEWGYTCQLLRLTELVASKL
notes: as for B1
Protein B8 has a Km ([1]; other: D35G/L36R) of 180 ± 17 µM, a kcat ([1]; other: D35G/L36R) of 3.4 ± 0.367 s⁻¹ and a kcat/Km ([1]; other: D35G/L36R) of 1134 ± 132 mM/min. It also gave a Km ([2]; other: D35G/L36R) of 310 ± 34 µM, a kcat ([2]; other: D35G/L36R) of 5.8 ± 0.433 s⁻¹ and a kcat/Km ([2]; other: D35G/L36R) of 1123 ± 176 mM/min.
